# Source: patent US20090155236A1, “Peptide sequence for modulation of delta protein kinase c” (NATIONAL INSTITUES OF HEALTH (NIH), U.S. DEPT OF HEALTH AND …, priority 2004, published 2009)
# T1: epsilon PKC (Rattus norvegicus, UniProt P09216)
# T1 sequence (P09216 1-737): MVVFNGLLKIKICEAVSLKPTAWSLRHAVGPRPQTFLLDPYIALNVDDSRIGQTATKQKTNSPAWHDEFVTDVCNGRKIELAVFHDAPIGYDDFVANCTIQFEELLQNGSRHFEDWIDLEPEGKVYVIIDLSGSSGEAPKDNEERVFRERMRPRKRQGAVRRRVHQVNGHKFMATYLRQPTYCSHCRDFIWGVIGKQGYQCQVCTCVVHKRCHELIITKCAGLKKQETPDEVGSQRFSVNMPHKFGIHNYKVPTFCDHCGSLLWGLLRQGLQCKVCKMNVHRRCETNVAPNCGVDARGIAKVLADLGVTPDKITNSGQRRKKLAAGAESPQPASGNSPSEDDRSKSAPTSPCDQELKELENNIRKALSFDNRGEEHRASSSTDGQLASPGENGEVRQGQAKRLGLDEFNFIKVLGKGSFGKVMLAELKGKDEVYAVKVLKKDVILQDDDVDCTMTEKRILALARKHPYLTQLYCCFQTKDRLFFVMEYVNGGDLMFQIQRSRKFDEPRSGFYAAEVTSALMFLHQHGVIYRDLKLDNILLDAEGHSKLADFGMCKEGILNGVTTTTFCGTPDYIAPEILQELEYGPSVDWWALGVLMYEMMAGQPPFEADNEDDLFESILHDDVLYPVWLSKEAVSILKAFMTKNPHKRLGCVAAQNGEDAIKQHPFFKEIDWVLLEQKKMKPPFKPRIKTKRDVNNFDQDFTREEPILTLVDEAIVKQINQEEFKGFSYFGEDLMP
# T2: epsilon PKC (Homo sapiens, UniProt Q02156)
# T2 construct: purchased Panvera LLC, now Invitrogen Corporation
# T2 sequence (Q02156 with tags, fused parts or gaps DEL296-297/G298R): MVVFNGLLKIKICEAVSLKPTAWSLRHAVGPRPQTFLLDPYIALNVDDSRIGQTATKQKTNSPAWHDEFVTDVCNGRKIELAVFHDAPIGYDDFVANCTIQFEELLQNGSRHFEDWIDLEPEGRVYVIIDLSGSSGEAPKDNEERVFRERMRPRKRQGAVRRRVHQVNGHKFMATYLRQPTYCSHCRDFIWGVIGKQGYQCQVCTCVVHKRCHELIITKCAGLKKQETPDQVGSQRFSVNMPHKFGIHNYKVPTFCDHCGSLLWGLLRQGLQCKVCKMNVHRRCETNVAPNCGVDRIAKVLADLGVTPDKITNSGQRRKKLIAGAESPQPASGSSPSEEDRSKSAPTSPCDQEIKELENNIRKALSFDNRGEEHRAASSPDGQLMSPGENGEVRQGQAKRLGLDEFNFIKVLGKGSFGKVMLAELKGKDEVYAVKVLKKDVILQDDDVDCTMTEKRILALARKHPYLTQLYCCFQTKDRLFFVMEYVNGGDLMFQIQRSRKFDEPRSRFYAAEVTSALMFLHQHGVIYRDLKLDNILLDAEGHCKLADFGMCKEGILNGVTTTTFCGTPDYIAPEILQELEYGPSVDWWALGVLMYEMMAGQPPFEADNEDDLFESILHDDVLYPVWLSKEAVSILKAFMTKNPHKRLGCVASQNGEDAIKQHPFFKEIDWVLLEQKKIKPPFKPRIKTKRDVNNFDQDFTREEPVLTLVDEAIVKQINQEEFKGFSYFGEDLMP
# Key:
# delta PKC [1] = biological target: T3, delta PKC (Rattus norvegicus, UniProt P09215); assay: ELISA binding of annexin I and annexin V to delta PKC; conditions: FIG. 3
# Source text: Annexin V binds with higher affinity to delta PKC than does annexin I (SEQ ID NO:9), as was shown in another study presented in FIG. 3. The percent binding of annexin 1 and annexin V to delta PKC (SEQ ID NO:3) in the presence and absence of calcium was investigated using ELISA (Example 2). […] In the presence of calcium the binding increased to 100%. In contrast, annexin I binding to delta PKC was unaffected by the presence of calcium and remained at about 70% both in the absence and presence of calcium.
# (§1) Annexin V (SEQ ID NO:2) was diluted in 100 mM carbonate buffer (pH=9.6) and 100 μl of the diluted solution is placed in each well of a microtiter plate to give 0.1 μg Annexin V per well. The plate was incubated overnight at 4° C. After the overnight incubation, the plate was blocked for 1 hour at room temperature with 200 μL/well of 1% bovine serum albumin (BSA).
# The interaction partners, delta PKC (SEQ ID NO:3), delta V1 PKC (SEQ ID NO:4), and delta V5 PKC (SEQ ID NO:5), were diluted in 100 mM HEPES. For the full length delta PKC, approximately 1.5 μg/well (1:20 dilution of cell lysate) was added. For the delta V1 and delta V5 PKC regions, between about 8000-80 ng/well was added, with an intermediate concentration being sufficient. Signal to noise increased dramatically at higher concentrations; therefore, 8 μg/well was preferred (this corresponds to 1:40 dilution of cell lysate). 100 μL/well, 1 hour w/shaking. Binding was accelerated at 37° C., however room temperature was also sufficient for binding.
# After 1 hour shaking, the plate was washed three times with 100 mM HEPES (200 μL/well×3), with 5 minutes for each wash, with shaking.
# Next, a primary antibody in milk (usually 1:1000 dilution) was added, followed by 1 hour at room temperature with shaking. The plate was then washed three times, (200 μL/well×3) with PBS Tween (0.1% Tween), with 5 minutes per wash with shaking.
# Then, the secondary antibody diluted in PBS Tween (usually 1:1000) was added, followed by 1 hour at room temperature with shaking. The plate was then washed three times (200 μL/well×3) with PBS Tween, with 5 minutes per wash with shaking.
# (§2) A developing reagent was added (100 μL/well): 1 PNPP tablet per 5 mL diluted buffer. 2N NaOH was added and the plate was allowed to develop and then read at 405 nm (single wavelength).
# Target sequence in this assay (P09215 with tags, fused parts or gaps with the stated changes limits assumed): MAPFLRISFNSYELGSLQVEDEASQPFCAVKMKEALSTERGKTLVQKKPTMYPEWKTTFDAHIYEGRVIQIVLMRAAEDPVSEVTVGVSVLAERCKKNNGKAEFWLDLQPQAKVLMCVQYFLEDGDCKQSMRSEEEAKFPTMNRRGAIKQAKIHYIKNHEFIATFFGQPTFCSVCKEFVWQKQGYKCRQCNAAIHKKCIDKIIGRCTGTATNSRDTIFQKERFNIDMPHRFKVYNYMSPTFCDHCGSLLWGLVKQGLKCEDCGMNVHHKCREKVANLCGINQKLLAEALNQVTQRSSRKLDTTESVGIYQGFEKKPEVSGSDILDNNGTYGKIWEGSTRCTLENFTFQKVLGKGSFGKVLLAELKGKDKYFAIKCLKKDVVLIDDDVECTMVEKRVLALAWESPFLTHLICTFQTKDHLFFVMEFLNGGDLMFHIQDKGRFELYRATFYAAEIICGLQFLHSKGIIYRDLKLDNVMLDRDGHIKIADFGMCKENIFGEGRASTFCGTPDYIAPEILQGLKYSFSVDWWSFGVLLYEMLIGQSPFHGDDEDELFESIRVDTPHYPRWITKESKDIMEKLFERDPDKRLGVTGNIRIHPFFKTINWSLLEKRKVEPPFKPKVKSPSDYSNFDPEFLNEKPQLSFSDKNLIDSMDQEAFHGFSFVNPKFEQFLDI
# epsilon PKC [2] = biological target: T1, epsilon PKC; assay: Overlay assay, immobilized annexin V with epsilon PKC; format: binding; conditions: FIG. 1
# Source text: (§3) Initial studies were designed to evaluate binding of annexin V to delta PKC, to certain regions of delta PKC (V1 and V5 regions), and to epsilon PKC. In a study detailed in Example 1, an overlay assay using immobilized annexin V (SEQ ID NO:2) and recombinant full-length delta PKC (SEQ ID NO:3), purified full-length epsilon PKC (SEQ ID NO:6), the recombinant V1 region of delta PKC (“V1 delta PKC”, SEQ ID NO:4), and the recombinant V5 region of delta PKC (“V5 delta PKC”, SEQ ID NO:5) was done. The V1 delta PKC peptide conjugated to […] to form a fusion protein, and the V5 delta PKC peptide was conjugated to glutathione-S-transferase to form a fusion protein.
# 10 μg of annexin V (SEQ ID NO:2) was separated on 12% SDS-PAGE gel and transferred to nitrocellulose, and then cut into strips. The strips were incubated with blocking buffer (50 mM Tris pH 7.5, 200 mM NaCl, 3% bovine serum albumin, 0.1% PEG20). The strips were then incubated in overlay buffer (50 mM Tris pH 7.5, 200 mM NaCl, 1% PEG20, 12 mM β-mercaptoethanol) in the presence where appropriate of 30 μg crude bacterial cell lysate containing fusion proteins of […] V1 PKC (MBP-δV1), glutathione-S-transferase-delta V5 PKC (GST-δV5), and full length sequences of delta (δPKC, SEQ ID NO:3) or rat purified epsilon (εPKC, SEQ ID NO:6) at 37° C. for 30 min. […]
# delta PKC [3] = biological target: T3, delta PKC; assay: Overlay assay, immobilized annexin V with delta PKC, delta V1 and delta V5 domains; format: binding; design: made in house; host or cells: crude bacterial cell lysate (not clear whether this also covers the full-length protein)
# Source text: as §3
# 10 μg of annexin V (SEQ ID NO:2) was separated on 12% SDS-PAGE gel and transferred to nitrocellulose, and then cut into strips. The strips were incubated with blocking buffer (50 mM Tris pH 7.5, 200 mM NaCl, 3% bovine serum albumin, 0.1% PEG20). The strips were then incubated in overlay buffer (50 mM Tris pH 7.5, 200 mM NaCl, 1% PEG20, 12 mM β-mercaptoethanol) in the presence where appropriate of 30 μg crude bacterial cell lysate containing fusion proteins of […] V1 PKC (MBP-δV1), glutathione-S-transferase-delta V5 PKC (GST-δV5), and full length sequences of delta (δPKC, SEQ ID NO:3) or rat purified epsilon (εPKC, SEQ ID NO:6) at 37° C. for 30 min. The strips where then washed with wash buffer (50 mM Tris pH 7.5, 200 mM NaCl, 0.1% PEG20, 12 mM O-mercaptoethanol), and then incubated with fixative (0.2% formaldehyde in PBS) and neutralizing solution (0.2M glycine in PBS) at room temperature 20 min each. After washing with buffer, the strips were probed with antibodies according to the overlay protein, and resulting bands visualized using ECL Western blotting.
# epsilon PKC [4] = biological target: T2, epsilon PKC; assay: In vitro kinase assay, histone phosphorylation by epsilon PKC; format: biochemical; conditions: in the presence of PS/DAG, FIG. 4B
# Protocol: (§4) In another study, the ability of annexin V to increase the catalytic activity of delta PKC in vitro was evaluated. Full-length, recombinant delta PKC (SEQ ID NO:3) and epsilon PKC (SEQ ID NO:6) were separately incubated in the presence of kinase buffer, ATP, or histone, as described in Example 3. Activators of PKC, phosphatidylserine (PS) and diacylglycerol (DAG), were added along with annexin V, JTV-519, a 1,4 benzothiazepine derivative that activates delta PKC (Inagaki, K. et al., Circulation, 101:797 (2000)), or a mixture of annexin V and JTV-519.
# (§5) 200 ng of pure delta PKC or epsilon PKC (Panvera LLC, now Invitrogen Corporation, Carlsbad, Calif.) were incubated in 100 μL kinase buffer (20 mM Tris pH 7.4, 50 mM MgCl2, 0.3 μCi/reaction [γ-^32P]ATP (Amersham Biosciences), 9 μM/reaction ATP (Sigma), 30 μg/reaction myelin basic protein or histone A1 (Sigma); 100 μM lipid vesicle mixture (90% phosphatidylserine (PS): 10% diacylglycerol (DAG)), 1 mM CaCl2, 1 μM JTV519, and/or 20 ng of Annexin V/reaction were added, where applicable. The kinase reaction was stopped by the addition of SDS sample buffer, and extent of histone phosphorylation assessed after separation on 15% SDS-PAGE and transfer onto nitrocellulose membrane by autoradiography.
# delta PKC [5] = biological target: T4, delta PKC (Homo sapiens, UniProt Q05655); assay: In vitro kinase assay, histone phosphorylation by delta PKC; format: biochemical; conditions: in the presence of PS/DAG, FIG. 4A
# T4 construct: purchased Panvera LLC, now Invitrogen Corporation
# Protocol: as §4, §5
# delta V1 PKC = biological target: T5, delta V1 PKC (Rattus norvegicus, UniProt P09215); assay: ELISA binding of annexin V protein to delta V1 PKC; conditions: FIG. 2
# T5 construct: MBP (printed as 'myelin basic protein'); made in house
# Source text: In another study, binding of annexin V protein to the V1 regions of epsilon PKC (SEQ ID NO:7) and of delta PKC (SEQ ID NO:4) was examined using ELISA, as described in Example 2. […] Binding of annexin V protein (SEQ ID NO:2) to delta V1 PKC in the absence of calcium was about 55%. In the presence of calcium binding was increased to 100%. […] Thus, annexin V protein binds to full-length PCK and to the V1 and V5 domains of delta PKC in vitro in an isozyme specific manner.
# as §1
# The interaction partners, delta PKC (SEQ ID NO:3), delta V1 PKC (SEQ ID NO:4), and delta V5 PKC (SEQ ID NO:5), were diluted in 100 mM HEPES. For the full length delta PKC, approximately 1.5 μg/well (1:20 dilution of cell lysate) was added. For the delta V1 and delta V5 PKC regions, between about 8000-80 ng/well was added, with an intermediate concentration being sufficient. […]
# as §2
# T5 sequence (P09215 1-160): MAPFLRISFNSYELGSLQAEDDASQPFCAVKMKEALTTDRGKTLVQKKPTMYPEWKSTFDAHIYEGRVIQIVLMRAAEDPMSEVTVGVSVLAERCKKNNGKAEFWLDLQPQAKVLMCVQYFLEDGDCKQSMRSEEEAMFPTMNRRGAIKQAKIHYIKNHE
# T4 sequence (Q05655 whole entry): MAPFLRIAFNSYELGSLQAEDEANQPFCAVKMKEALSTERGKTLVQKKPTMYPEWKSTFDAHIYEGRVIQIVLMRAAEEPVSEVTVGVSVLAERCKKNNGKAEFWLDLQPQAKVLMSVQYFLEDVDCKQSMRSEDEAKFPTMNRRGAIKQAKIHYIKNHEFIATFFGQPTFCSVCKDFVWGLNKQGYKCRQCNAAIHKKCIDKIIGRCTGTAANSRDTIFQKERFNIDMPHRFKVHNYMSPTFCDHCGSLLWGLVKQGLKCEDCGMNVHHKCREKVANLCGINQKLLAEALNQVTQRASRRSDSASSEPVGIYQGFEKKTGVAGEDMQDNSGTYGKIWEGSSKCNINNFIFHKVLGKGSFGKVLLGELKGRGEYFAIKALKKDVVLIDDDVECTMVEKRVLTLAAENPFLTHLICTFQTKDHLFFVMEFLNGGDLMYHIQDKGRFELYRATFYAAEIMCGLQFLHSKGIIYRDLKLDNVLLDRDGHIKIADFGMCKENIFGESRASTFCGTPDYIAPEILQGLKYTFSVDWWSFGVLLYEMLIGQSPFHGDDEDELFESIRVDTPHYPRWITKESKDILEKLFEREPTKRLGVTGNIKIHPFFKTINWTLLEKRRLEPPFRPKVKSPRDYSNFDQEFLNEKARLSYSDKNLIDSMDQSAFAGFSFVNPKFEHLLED
Molecule,percent binding to delta PKC (delta PKC [1]; absence of calcium),percent binding to delta PKC (delta PKC [1]; presence of calcium),binding of epsilon PKC to annexin V (epsilon PKC [2]),"binding of V5 domain of delta PKC to annexin V (delta PKC [3]; FIG. 1, GST-delta V5 fusion protein)","binding of V1 domain of delta PKC to annexin V (delta PKC [3]; FIG. 1, MBP-delta V1 fusion protein)","binding of full-length delta PKC to annexin V (delta PKC [3]; FIG. 1, full-length delta PKC)",activity of epsilon PKC (histone phosphorylation) (epsilon PKC [4]),catalytic activity of delta PKC (histone phosphorylation) (delta PKC [5]),percent binding to delta V1 PKC (delta V1 PKC; absence of calcium),percent binding to delta V1 PKC (delta V1 PKC; presence of calcium) [%]
"annexin I: human annexin I protein (protein, listed as Homo sapiens) MAMVSEFLKQAWFIENEEQEYVQTVKSSKGGPGSAVSPYPTFNPSSDVAALHKAIMVKGVDEATIIDILTKRNNAQRQQIKAAYLQETGKPLDETLKKALTGHLEEVVLALLKTPAQFDADELRAAMKGLGTDEDTLIEILASRTNKEIRDINRVYREELKRDLAKDITSDTSGDFRNALLSLAKGDRSEDFGVNEDLADSDARALYEAGERRKGTDVNVFNTILTTRSYPQLRRVFQKYTKYSKHDMNKVLDLELKGDIEKCLTAIVKCATSKPAFFAEKLHQAMKGVGTRHKALIRIMVSRSEIDMNDIKAFYQKMYGISLCQAILDETKGDYEKILVALCGGN",about 70%,about 70%,–,–,–,–,–,–,–,–
"annexin V: human annexin V protein (protein, listed as Homo sapiens) MAQVLRGTVTDFPGFDERADAETLRKAMKGLGTDEESILTLLTSRSNAQRQEISAAFKTLFGRDLLDDLKSELTGKFEKLIVALMKPSRLYDAYELKHALKGAGTNEKVLTEIIASRTPEELRAIKQVYEEEYGSSLEDDVVGDTSGYYQRMLVVLLQANRDPDAGIDEAQVEQDAQALFQAGELKWGTDEEKFITIFGTRSVSHLRKVFDKYMTISGFQIEETIDRETSGNLEQLLLAVVKSIRSIPAYLAETLYYAMKGAGTDDHTLIRVMVSRSEIDLFNIRKEFRKNFATSKMIKGDTSGDYKKALLLLCGEDD",about 75%,100%,did not bind,bound to annexin V,bound to annexin V,bound to annexin V,does not increase the activity of epsilon PKC,increases the catalytic activity of delta PKC,about 55%,100
